Data as given in paper PMC8053102.

Biological target: T1, PcnR (plasmid copy number repressor, ProQ/FinO family) (Escherichia coli IncI2 plasmid pHNSHP45, UniProt Q9F577 1-198)
T1 sequence: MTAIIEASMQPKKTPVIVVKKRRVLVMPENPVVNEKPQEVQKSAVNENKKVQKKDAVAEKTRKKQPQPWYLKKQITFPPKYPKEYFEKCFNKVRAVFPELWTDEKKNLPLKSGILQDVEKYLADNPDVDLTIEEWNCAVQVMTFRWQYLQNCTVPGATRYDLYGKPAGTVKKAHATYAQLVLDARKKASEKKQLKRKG
Experiment: EMSA

CUGAAGUGGAGUUUAAUUCCAUGAGAAGGAAAUAUCAACUCUUACAG (structured_RNA) [first stem-loop (SL) of repR mRNA, 47 nt]: binds.
